Results from the supplement of paper PMC7125110.
± gives the standard error. This sample holds only a part of the variants without activity.

B1: glmS ribozyme (parent)
chain: AUAAAAGCGCCAGAACUACAGAAAUGUAGUUGACGAGGAGGAGGUUUAUCGAAUUUUCGGCGGAUGCCUCCAAA

Columns and labels:
Details in all cases: with glucosamine-6-phosphate
[1] = variants of: B1; test: self-cleavage kobs at 640 uM GlcN6P; higher = faster cleavage; RNA array
In short: (§1)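 Over ~14 h at 37 °C, tiles were imaged as glucosamine-6-phosphate (40 μM to 10 mM) in HEPES/KCl/Mg(OAc)2 buffer flowed across sequenced MiSeq chips. The chips carried barcoded ribozyme variants transcribed in situ by E. coli RNA polymerase and tracked with a hybridised Cy3 probe. After normalisation to baseline and to non-cleaving reference variants, one- or two-exponential decay fits of per-tile medians gave kobs. kcat and KM followed from weighted Michaelis–Menten fits across concentrations.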

[2] = variants of: B1; test: self-cleavage kobs at 2500 uM GlcN6P; higher = faster cleavage; RNA array
In short: as §1

[3] = variants of: B1; test: self-cleavage kobs at 10000 uM GlcN6P; higher = faster cleavage; RNA array
In short: as §1

Variant | self-cleavage kobs at 640 uM GlcN6P [1] [s⁻¹] | self-cleavage kobs at 2500 uM GlcN6P [2] [s⁻¹] | self-cleavage kobs at 10000 uM GlcN6P [3] [s⁻¹]
G32C A33G G35A C61A | < 1e-05 | – | –
G7U C11A C50G C70U | 0.000451 ± 0.00011 | 0.000157 ± 3.1e-05 | 0.00016 ± 3.1e-05
G7U A12G C16U | < 1e-05 | < 1e-05 | –
A33U G35A A39G G44U C61U G62U | < 1e-05 | < 1e-05 | –
A6G U30G G38U U55G | < 1e-05 | < 1e-05 | –
C8A C50G C61A U69G | 7.27e-05 ± 2.2e-05 | 6.55e-05 ± 2.7e-05 | –
G59A C61A | < 1e-05 | < 1e-05 | –
U45G U47G C71U | 0.000978 ± 0.00031 | – | –
G38U U46A G59A C70A | < 1e-05 | < 1e-05 | –
G32U C34U A36G G51A C70G | 8.6e-05 ± 3.2e-05 | – | –
G21A C70U | 0.00594 ± 0.0022 | 0.00398 ± 0.0016 | –
G29A G32A G66A | 0.000119 ± 2.8e-05 | 0.000338 ± 8.3e-05 | –
G35C G38U | < 1e-05 | < 1e-05 | –
G13U G32A U46A | 4.17e-05 ± 1.9e-05 | 8.03e-05 ± 2.3e-05 | –
A6G G40U C67A | < 1e-05 | – | –
G41U C50U G60C | < 1e-05 | – | –
A14G A15C U31C G40C U54A | 4.07e-05 ± 1e-05 | 0.000142 ± 3.5e-05 | 5.3e-05 ± 1.6e-05
A39G A48U U54G | 8.65e-05 ± 1.9e-05 | 0.000287 ± 7.3e-05 | –
C8U U31G G43A | < 1e-05 | – | –
A12U A15C A48G A52U G66A C70G | < 1e-05 | – | –
G9A C11U U54A G59A A64G | < 1e-05 | < 1e-05 | –
C8A A15G A36C | < 1e-05 | – | –
U31A G44A C67U | 0.00323 ± 0.0014 | 0.00757 ± 0.0024 | 0.00871 ± 0.0018
C10U U30C G40U U55C G60A C71U | < 1e-05 | – | –
C8U G32A C34G | < 1e-05 | < 1e-05 | –
C8A C10A U30A C61G | < 1e-05 | < 1e-05 | –

Variant | self-cleavage kobs at 640 uM GlcN6P [1] [s⁻¹] | self-cleavage kobs at 2500 uM GlcN6P [2] [s⁻¹] | self-cleavage kobs at 10000 uM GlcN6P [3] [s⁻¹]
C58G C61U G63U C68A | 0.000162 ± 5.6e-05 | 0.000151 ± 4.4e-05 | –
G9U G38U C61U | < 1e-05 | – | –
U31G C58G C70G | 0.000104 ± 3.4e-05 | – | –
C8G U30C A64C | < 1e-05 | < 1e-05 | < 1e-05
G13A A39G A52C | < 1e-05 | – | –
G35U C58A A64U | < 1e-05 | < 1e-05 | –
C50U U56A G66U | < 1e-05 | < 1e-05 | –
C10G G40A C70U | < 1e-05 | < 1e-05 | –
G29A C58U C67G | 0.000115 ± 2.9e-05 | – | –
C34G G37U A39G C58U C61G | 0.00305 ± 0.001 | – | –
C16G G43U G66A | < 1e-05 | – | –
A12G A33G G40C A52G U54A C58A | < 1e-05 | – | –
C10U G32C G62U | < 1e-05 | < 1e-05 | –
U30A G43C C58U U69A | < 1e-05 | < 1e-05 | –
U30C G35A C71A | < 1e-05 | – | –
C16A G40U U57G | < 1e-05 | < 1e-05 | –
A14C A42U G63A | < 1e-05 | – | –
U47A G66C C71U | 0.000187 ± 6.3e-05 | 0.000491 ± 0.00012 | –
C8G A12C C71A | < 1e-05 | < 1e-05 | –
A6U C70A | 0.000142 ± 6.1e-05 | 2.49e-05 ± 9.6e-06 | –
A36G G62A | < 1e-05 | < 1e-05 | < 1e-05
C50G A52G G60U C71U | 0.000392 ± 0.00013 | 6.62e-05 ± 2.9e-05 | –
U30G G43A C67A | 9.35e-05 ± 3e-05 | 0.000157 ± 5.9e-05 | –
A15C G41C A48G | < 1e-05 | – | –
C11G A33U U54A U65G | < 1e-05 | – | –
G38U C50U C58A U69A | 0.000295 ± 9.9e-05 | 0.000466 ± 0.00018 | –

Variant | self-cleavage kobs at 640 uM GlcN6P [1] [s⁻¹] | self-cleavage kobs at 2500 uM GlcN6P [2] [s⁻¹] | self-cleavage kobs at 10000 uM GlcN6P [3] [s⁻¹]
G7U A48U C50A C67G | 0.000229 ± 8.3e-05 | – | –
A36U G43U | < 1e-05 | < 1e-05 | –
G29A G38A G43C | < 1e-05 | – | –
U46G C50G C71A | 8.98e-05 ± 3.3e-05 | – | –
G9A G66U | < 1e-05 | < 1e-05 | –
A36G A39G G40U | < 1e-05 | < 1e-05 | < 1e-05
A6U C34A G44U C67U | < 1e-05 | < 1e-05 | –
G32U G35U G40A U55A | < 1e-05 | – | –
U46G U55C C67A | 8.32e-05 ± 1.9e-05 | 6.57e-05 ± 1.5e-05 | –
A15C G29U U30A | 0.000117 ± 2.7e-05 | 0.000332 ± 0.00011 | –
G9C C67A C71U | < 1e-05 | < 1e-05 | –
G13U G60U C70U | < 1e-05 | – | –
G9U U65C | < 1e-05 | – | < 1e-05
A42C U46G C71G | < 1e-05 | < 1e-05 | –
G9A C11A A39U G41A A42U C50A U57G | < 1e-05 | < 1e-05 | –
U45C G63U C67U | < 1e-05 | – | –
U46A C58A C61U C71G | < 1e-05 | < 1e-05 | –
C11A A12C A42C | < 1e-05 | < 1e-05 | –
G38C A42U G63A C68U | < 1e-05 | – | –
C34G G35A G63U | < 1e-05 | – | < 1e-05
C10G C58U G63U | < 1e-05 | – | –
G9U U30C U57A | < 1e-05 | < 1e-05 | –
A36G G38U C68G | 9.46e-05 ± 3.2e-05 | – | 3.1e-05 ± 1.5e-05
G38U U45G G51A | < 1e-05 | < 1e-05 | –
G7U C34U A52U | < 1e-05 | < 1e-05 | –
G32C G35A A36G | < 1e-05 | – | –

Variant | self-cleavage kobs at 640 uM GlcN6P [1] [s⁻¹] | self-cleavage kobs at 2500 uM GlcN6P [2] [s⁻¹] | self-cleavage kobs at 10000 uM GlcN6P [3] [s⁻¹]
G40A U65G G66U | 0.00012 ± 2.6e-05 | 0.000547 ± 0.00026 | –
G29A G40U G41C | < 1e-05 | – | –
G38U U69A | 0.000186 ± 9e-05 | – | –
G9C C50U C58U | < 1e-05 | < 1e-05 | –
U55G G59A C70A | < 1e-05 | < 1e-05 | –
A6U G7A G59A | < 1e-05 | – | –
C8U G37C A52G | < 1e-05 | – | –
C58A G62C C70G | 5.64e-05 ± 2.6e-05 | – | –
A15G U30C C34G A36C G41U U49A C70A | < 1e-05 | < 1e-05 | –
A14U U31A G37C G59C | < 1e-05 | < 1e-05 | –
A52G C58G U65C | < 1e-05 | – | –
A6G U54A U57G | < 1e-05 | – | –
G7C G9U C11G C16G U30G G43U G44U C61U | < 1e-05 | < 1e-05 | < 1e-05
U47C C67A | 0.000623 ± 0.00018 | 0.000286 ± 9.8e-05 | 0.000244 ± 8e-05
A12G G21A G43U G59C C70U | < 1e-05 | < 1e-05 | –
G9C G37C U46C C50G | < 1e-05 | < 1e-05 | –
U45A U57G G62A | < 1e-05 | < 1e-05 | –
G35A G40U G44U U45C A52U | < 1e-05 | – | –
G7A A39G U49C U69A | < 1e-05 | < 1e-05 | < 1e-05
G13C G38U U56G G63U U69C | < 1e-05 | < 1e-05 | –
G7U G32C C34U U55C | < 1e-05 | < 1e-05 | –
A14U U17C A18U C19A G59U G66A | < 1e-05 | < 1e-05 | –
G35C A42C C50U G51U | < 1e-05 | – | –
C8U A42U U49G A52G U57G | < 1e-05 | < 1e-05 | –
G32C A42U G60A | < 1e-05 | – | –
G43U G51C G59C G62U C68U | < 1e-05 | – | –

Variant | self-cleavage kobs at 640 uM GlcN6P [1] [s⁻¹] | self-cleavage kobs at 2500 uM GlcN6P [2] [s⁻¹] | self-cleavage kobs at 10000 uM GlcN6P [3] [s⁻¹]
C34G G60A G62C U69G | < 1e-05 | – | –
A36U G40U A42G | < 1e-05 | – | –
C34U C58A G59U | < 1e-05 | < 1e-05 | –
G41A A53U U56G G60A | < 1e-05 | < 1e-05 | –
G32U A39G | 0.0002 ± 3.6e-05 | 0.000485 ± 0.00015 | –
C11A A52G A64C | < 1e-05 | < 1e-05 | –
A39G G41A U49C | < 1e-05 | – | –
G13U A14G A42C | < 1e-05 | < 1e-05 | –
A6U G13U G29U C70G | 4.98e-05 ± 2.3e-05 | – | –
G9A G38U U57A | < 1e-05 | – | –
A15G G29C G38A U47C C71A | < 1e-05 | < 1e-05 | –
G35C G37C A39C G63C | < 1e-05 | < 1e-05 | –
C10A G44A G59U | < 1e-05 | – | –
G29U U46C G62C C71G | < 1e-05 | < 1e-05 | –
G13U A42C A48U A53C G60C | < 1e-05 | < 1e-05 | –
G38U A42G A53U | < 1e-05 | – | –
A15U G29A C68U | 5.07e-05 ± 1.3e-05 | 7.12e-05 ± 2.1e-05 | –
G32A G37C A42C | < 1e-05 | – | –
G9A A14U | < 1e-05 | < 1e-05 | –
A12C G38A A52U | < 1e-05 | – | –
C34G G43C A52G | < 1e-05 | < 1e-05 | –
A12U U56A C58G | 0.000155 ± 2.6e-05 | 0.000526 ± 9e-05 | –
G35U G38A G51U | < 1e-05 | – | –
